Reference: patent US20160207975A1 (published 2016)

Target: CGRP receptor (CALCRL:RAMP1) on CALCRL:RAMP1-CRE-bla Freestyle 293F cells (UniProt Q16602 23-461; O60894 27-148, limits assumed)
Assay: cell-based or functional assay

Chain of CGRP receptor (CALCRL:RAMP1) on CALCRL:RAMP1-CRE-bla Freestyle 293F cells (Q16602 23-461 limits assumed, chain 1 of 2): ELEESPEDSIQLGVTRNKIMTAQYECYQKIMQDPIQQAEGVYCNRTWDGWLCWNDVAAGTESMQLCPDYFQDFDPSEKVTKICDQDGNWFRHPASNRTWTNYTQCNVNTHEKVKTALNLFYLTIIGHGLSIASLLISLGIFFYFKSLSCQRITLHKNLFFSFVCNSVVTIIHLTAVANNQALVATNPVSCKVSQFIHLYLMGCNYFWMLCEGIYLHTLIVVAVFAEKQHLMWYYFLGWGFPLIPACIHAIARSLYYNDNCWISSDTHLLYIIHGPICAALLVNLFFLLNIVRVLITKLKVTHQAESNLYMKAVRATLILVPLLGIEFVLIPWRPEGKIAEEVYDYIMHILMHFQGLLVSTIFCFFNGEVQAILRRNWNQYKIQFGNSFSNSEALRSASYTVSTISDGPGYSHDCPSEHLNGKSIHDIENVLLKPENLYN
Chain of CGRP receptor (CALCRL:RAMP1) on CALCRL:RAMP1-CRE-bla Freestyle 293F cells (O60894 27-148 limits assumed, chain 2 of 2): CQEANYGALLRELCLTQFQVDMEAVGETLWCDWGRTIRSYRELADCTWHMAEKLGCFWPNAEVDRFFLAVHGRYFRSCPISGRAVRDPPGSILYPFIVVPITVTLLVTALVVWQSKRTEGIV

- percent activation of the CGRP receptor (CALCRL:RAMP1-CRE-bla Freestyle 293F agonist screen), EC50: ~105 nM
B1: ACX017 (SEQ ID NO:1) (peptide)
peptide: H-ACDTATCVLGRLSQELHRLQTYPRTNVGSKAF-NH2
modifications: ends and bridges not checked
